Source: the supplement of paper PMC6757056
± gives the standard deviation of the averaged measurements.

B1: library; a variant is named by its letters at N, in order (parent)
chain: GCUGUCACCGGUGUAUUACCCUAGUGGUCGACCGGUCUGAUGAGUCUNNNNNNAGACGAAACAGC

Tests used:
hypoxanthine [1] = variants of: B1; test: normalized RNA/DNA level with ligand (relative to sTRSVctl = 100) (log10 (% of sTRSVctl)); ligand: hypoxanthine (xanthine aptamer); higher = less ribozyme self-cleavage, higher mRNA level; settings: ligand concentration (+) RNA-Seq: 5 mM, HEK293T, reporter: mCherry (pCS4076), ligand present: yes
Outline: (§1)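 Ribozyme switch library plasmids with mCherry reporters (eGFP in certain ligand experiments) went into HEK293T cells at 4 µg per 6-well well. Where ligand was used, it was applied 1 h before transfection, and total RNA was extracted with EDTA 72 h later for reverse transcription, amplification, barcoding and sequencing. RNA level is the RNA-to-DNA read ratio normalized to a spiked-in non-cleaving sequence or to the leading sequences, then scaled and log-transformed. Scaling was ×100 with log10, the leading set comprised 25 sequences, and the cutoff was ≥100 DNA reads.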

hypoxanthine [2] = variants of: B1; test: normalized RNA/DNA level without ligand (relative to sTRSVctl = 100) (log10 (% of sTRSVctl)); ligand: hypoxanthine (xanthine aptamer); higher = less ribozyme self-cleavage, higher mRNA level; settings: HEK293T, reporter: mCherry (pCS4076), ligand present: no
Outline: as §1

Row | Variant | normalized RNA/DNA level with ligand (log10) (hypoxanthine [1]) | normalized RNA/DNA level without ligand (log10) (hypoxanthine [2])
1 | UGAUUA | 1.91 ± 0.087 | 1.88 ± 0.049
2 | CGCGUC | 1.97 ± 0.075 | 2.01 ± 0.061
3 | CGCGUG | 1.97 ± 0.068 | 1.73 ± 0.082
4 | CGCGUU | 1.99 ± 0.054 | 1.905 ± 0.0075
5 | GGCCGG | 1.95 ± 0.039 | 1.84 ± 0.026
6 | GGCCGA | 1.98 ± 0.038 | 1.854 ± 0.014
7 | GGCCGC | 1.879 ± 0.014 | 1.7 ± 0.06
8 | GGAGCC | 1.92 ± 0.062 | 1.854 ± 0.0083
9 | AGAUGC | 1.96 ± 0.07 | 1.72 ± 0.072
10 | CGAUAU | 1.911 ± 0.0083 | 1.74 ± 0.024
11 | GGCUCC | 1.989 ± 0.014 | 1.898 ± 0.018
12 | GGCUCG | 1.98 ± 0.027 | 1.834 ± 0.012
13 | CGCUCC | 1.956 ± 0.013 | 1.93 ± 0.027
14 | CGCUCA | 2.01 ± 0.059 | 1.905 ± 0.012
15 | GGCCUA | 1.98 ± 0.063 | 1.98 ± 0.026
16 | GGCCUC | 1.99 ± 0.13 | 1.96 ± 0.084
17 | GGCCUU | 1.975 ± 0.013 | 1.968 ± 0.011
18 | GGCAUC | 1.97 ± 0.074 | 1.91 ± 0.057
19 | GGCAUA | 1.941 ± 0.0052 | 1.86 ± 0.032
20 | GGCAUU | 1.958 ± 0.0075 | 1.925 ± 0.0063
21 | CGCAGG | 1.82 ± 0.096 | 1.348 ± 0.011
22 | CGCAGU | 1.938 ± 0.0028 | 1.86 ± 0.026
23 | CGCAGA | 1.9 ± 0.029 | 1.81 ± 0.082
24 | CGCAGC | 1.96 ± 0.041 | 1.87 ± 0.025
25 | GGCAGG | 1.874 ± 0.0049 | 1.496 ± 0.0048
26 | UGCAUC | 2.02 ± 0.031 | 2.04 ± 0.052
27 | UGCAUG | 1.9 ± 0.028 | 1.75 ± 0.024
28 | UGCAUU | 1.981 ± 0.01 | 1.88 ± 0.018
29 | UGCAUA | 1.964 ± 0.0062 | 1.83 ± 0.022
